This is an account of results in patent US20050238665A1.

The experiment has as its target Crotalus durissus terrificus venom. Nature of the experiment: ELISA on C.d.t. venom (5 µg/ml coat). A general note: ELISA stands for enzyme-linked immunosorbent assay.

In turn, “preimmune IgY (chicken egg yolk) (antibody)” had an absorbance at dilution 1:5 of under 0 absorbance, an absorbance at dilution 1:25 of 0 absorbance, an absorbance at dilution 1:125 of 0.003 absorbance and an absorbance at dilution 1:625 of 0 absorbance. The same substance showed an absorbance at dilution 1:3125 of 0.002 absorbance and an absorbance, undiluted of 0.003 absorbance.
